Measured values reported in patent US20190055316A1.

How the values were obtained:
[1] = biological target: recombinant human soluble MSLN (human) (UniProt Q13421); assay: Biacore (SPR), antibody captured on chip, rHuMSLN sol. in flow
[2] = biological target: native human MSLN expressed on the cell surface (N87 tumor cells) (human) (UniProt Q13421); assay: KinExA equilibrium binding to N87 tumor cells expressing native human MSLN
[3] = biological target: native human MSLN expressed on the cell surface (N87 tumor cells) (human) (UniProt Q13421); assay: KinExA on N87 cells compared with Biacore on soluble MSLN

native human MSLN expressed on the cell surface (N87 tumor cells) (human), sequence (Q13421 296-606 limits assumed): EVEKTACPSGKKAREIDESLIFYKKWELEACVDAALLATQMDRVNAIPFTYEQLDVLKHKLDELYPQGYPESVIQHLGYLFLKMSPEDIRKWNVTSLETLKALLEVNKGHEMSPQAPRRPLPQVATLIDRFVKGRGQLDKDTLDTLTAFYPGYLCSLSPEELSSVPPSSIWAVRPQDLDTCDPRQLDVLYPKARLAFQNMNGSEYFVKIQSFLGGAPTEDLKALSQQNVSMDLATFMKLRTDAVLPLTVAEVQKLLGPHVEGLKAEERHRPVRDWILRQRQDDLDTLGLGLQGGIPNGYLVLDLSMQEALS
recombinant human soluble MSLN (human), sequence (Q13421 296-606 limits assumed): as above

B1: Ab237 (antibody, V domains shown)
VH: QVQLQESGPGLVKPSQTLSLTCTVSGGSINNNNYYWTWIRQHPGKGLEWIGYIYYSGSTFYNPSLKSRVTISVDTSKTQFSLKLSSVTAADTAVYYCAREDTMTGLDVWGQGTTVTVSS
VL: DIQMTQSPSSLSASVGDRVTITCRASQSINNYLNWYQQKPGKAPTLLIYAASSLQSGVPSRFSGSRSGTDFTLTISSLQPEDFAAYFCQQTYSNPTFGQGTKVEVK
Kd [1]: 0.097 nM | Kd [2]: 0.0035 nM | fold higher selectivity for native surface bound MSLN compared to soluble MSLN [3]: 30 fold
